Values joined by “and” are separate entries in the source; they are usually repeats but may differ in a detail not shown here. Equal values may be shown once.

In data set [1] the target is SpSMN/SpG2^ΔN80/SpG6/SpG7/SpG8^Δ35–58 complex (S. pombe) (UniProt Q09808). Put plainly: SEC-SAXS; full length SpSMN complexes at various concentrations; molecular weight against the standard SpSMNΔ36–119S130D/SpG2ΔN80. Background: SEC sorts molecules by how far they enter the pores of the column.
Data set [2] deals with the molecule itself. The experiment in a line: SEC; gel filtration chromatography of MBP-YG-domain 252–284 fusion proteins.
A further data set deals with T1, HsG7^46–131 (human, UniProt Q9H840 46-131).
T1 construct: human Gemin7, residues 46-131 (residues 47-131 in the model); also called human Gemin7 46-131; His6-HsG7^46–131; source: E. coli BL21(DE3), co-expressed with HsG6 1-92, purified
T1 sequence (looked up): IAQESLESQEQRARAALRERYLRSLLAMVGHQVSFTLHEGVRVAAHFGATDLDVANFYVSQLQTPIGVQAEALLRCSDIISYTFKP
Put plainly: crystal structure; HsG6 1–92/HsG7 46–131/HsG8 190–230, 1.52 Å, PDB 7BBL. The following applies: both partners purified.

Data set [3] concerns the molecule itself. Put plainly: SEC-SAXS; low concentrations (peak concentrations 5.8–16 μM); Superdex 200 10/300, 150 mM NaCl, 20 mM HEPES, 1 mM DTT, pH 7.5, 20°C.
Data set [4] deals with the molecule itself. Put plainly: SEC-SAXS; full length SpSMN complexes at various concentrations; molecular weight against the standard SpSMNΔ36–119S130D/SpG2ΔN80.

In the case of “SpSMN/SpG2^ΔN80/SpG6/SpG7/SpG8^Δ35–58 complex (from UniProt Q09808 1-152; P0CU08 81-235)”, the stoichiometry N – broadly, the number of molecules, sites or subunits per partner or assembly – in data set [1] was 4.

B1: MBP-Hs-YG-domain^252–284 (wt) (domain or fragment, human, UniProt Q16637 252-284, looked up)
chain: DSLDDADALGSMLISWYMSGYHTGYYMGFRQNQ
notes: human SMN, YG-domain, residues 252-284; vector pETM-41; also called MBP fusion of human YG-box^252–284; wild-type construct; source: E. coli BL21(DE3), purified; immobilized on Amylose resin for the pull-down
Consider B1, for which, in data set [2], the binding result was “binds”.

B2: MBP-Hs-YG-domain^252–284 H273R (domain or fragment, human, UniProt Q16637 252-284, looked up)
chain: DSLDDADALGSMLISWYMSGYRTGYYMGFRQNQ
notes: human SMN, YG-domain, residues 252-284, SMA-causing missense mutation H273R; source: E. coli BL21(DE3), purified; immobilized on Amylose resin for the pull-down
In the case of B2, in data set [2], the binding result is “binds”.

B3: HsG8^190–230 (domain or fragment, human, UniProt Q9NWZ8 190-230, looked up)
chain: TERPGERRQAEMKRLYGDSAAKIQAMEAAVQLSFDKHCDRK
notes: human Gemin8, residues 190-230 (also printed as 191-230; residues 191-227 in the model); also called HsG8^191–230; human Gemin8 C-terminus; source: E. coli BL21(DE3), purified (Glutathione Sepharose, PreScission); not shown: His6, N-terminal, cleaved; GST, N-terminal, cleaved
As for B3, the binding result with HsG7^46–131 is on record as “binds”.

B4: SpSMN^Δ36–119S130D/SpG2^ΔN80 complex (complex, S. pombe)
chain 1: MDQSQKEVWDDSELRNAFETALHEFKKYHSIEAKGYDETYKKLIMDWYYAGYYTGLAEGLAKSEQRKD
chain 2: RKLEIEAGKKSFDPFLRYLLNIIDKEGERLEQYMESSSLDASILPKNLQQWRVYIEHKAPCWAILAVVDLATVLEILESLSSWLEKDAIDLQSQWIFCFCYKLPELLNGEDISTLRSVLKSLRSTHTSFPALQMSASALQAVLVYRYGQKDLFQT
notes: Gemin2 of Schizosaccharomyces pombe (SpG2) lacking the N-terminus (ΔN80); also called S130D mutant; source: E. coli BL21(DE3), co-expressed (SpSMNΔ36–119S130D/His6-SpG2ΔN80), purified (Ni-NTA, TEV, dialysis); not shown: His6, N-terminal, cleaved
On to B4, for which, in data set [3], the “stoichiometry N” value was found to be 2.

B5: SpSMN/SpG2^ΔN80 complex (complex, S. pombe)
chain 1: MDQSQKEVWDDSELRNAFETALHEFKKYHSIEAKGGVSDPDSRLDGEKLISAARTEESISKLEEGEQMINQQTETTLEGDTHIQQFADNKGLSDEKPETRAAETHQEFMEVPPPIRGLTYDETYKKLIMSWYYAGYYTGLAEGLAKSEQRKD
chain 2: RKLEIEAGKKSFDPFLRYLLNIIDKEGERLEQYMESSSLDASILPKNLQQWRVYIEHKAPCWAILAVVDLATVLEILESLSSWLEKDAIDLQSQWIFCFCYKLPELLNGEDISTLRSVLKSLRSTHTSFPALQMSASALQAVLVYRYGQKDLFQT
notes: SMN of Schizosaccharomyces pombe (SpSMN); Gemin2 of Schizosaccharomyces pombe (SpG2) lacking the N-terminus (ΔN80); source: E. coli BL21(DE3), co-expressed (SpSMN/His6-SpG2ΔN80), purified (Ni-NTA, TEV, dialysis); not shown: His6, N-terminal, cleaved
As for B5, the “stoichiometry N” value in data set [4] is 6 and 8.

B6: SpSMN^Δ36–119A134E/SpG2^ΔN80 complex (complex, S. pombe)
chain 1: MDQSQKEVWDDSELRNAFETALHEFKKYHSIEAKGYDETYKKLIMSWYYEGYYTGLAEGLAKSEQRKD
chain 2: RKLEIEAGKKSFDPFLRYLLNIIDKEGERLEQYMESSSLDASILPKNLQQWRVYIEHKAPCWAILAVVDLATVLEILESLSSWLEKDAIDLQSQWIFCFCYKLPELLNGEDISTLRSVLKSLRSTHTSFPALQMSASALQAVLVYRYGQKDLFQT
notes: Gemin2 of Schizosaccharomyces pombe (SpG2) lacking the N-terminus (ΔN80); also called A134E mutant; source: E. coli BL21(DE3), co-expressed (SpSMNΔ36–119A134E/His6-SpG2ΔN80), purified (Ni-NTA, TEV, dialysis); not shown: His6, N-terminal, cleaved
On to B6, for which the “stoichiometry N” value in data set [3] amounted to 2.

The values above are taken from paper PMC8287938, “Identification and structural analysis of the Schizosaccharomyces pombe SMN complex” (Nucleic Acids Research, 2021).
